For 32 variants, self-cleavage results are on record in the RNAGym collection of RNA variant scans (doi:10.7554/elife.80360).

B1: HDV Ribozyme (parent)
chain: GGCCGGCAUGGUCCCAGCCUCCUCGCUGGCGCCGGCUGGGCAACAUUCCGAGGGGACCGUCCCCUCGGUAAUGGCGAAUGGGACCCA

This series covers variants of B1. As to the kind of experiment: self-cleavage, relative activity (ratio to wild type); higher = more cleavage; co-transcriptional.
As for GGUCGGCAUGGUCCCAGCCUCCUCGCUGGCGCCGGCUGGGUAACAUUCCGAGGGGACCGUCCCCUCGGUAAUGGCGAAUGGGACCCA [C3U C41U], the self-cleavage was 0.726.

As to GGUCGGCAUGGUCCCAGCCUCCUCGCUGGCGCCGGCUGGGCAACAUUCCGAGGGGACCGUCCCCUUGGUAAUGGCGAAUGGGACCCA [C3U C66U], the self-cleavage was 0.753.

Turning to GGUCGGCAUGGUCCCAGCCUCCUCGCUGGCGCCGGCUGGGCAACAUUCUGAGGGGACCGUCCCCUCGGUAAUGGCGAAUGGGACCCA [C3U C49U], the self-cleavage was 0.762.

Take GGUCGGCAUGAUCCCAGCCUCCUCGCUGGCGCCGGCUGGGCAACAUUCCGAGGGGACCGUCCCCUCGGUAAUGGCGAAUGGGACCCA [C3U G11A]: the self-cleavage was found to be 0.262.

In the case of GGUCGGCAUGCUCCCAGCCUCCUCGCUGGCGCCGGCUGGGCAACAUUCCGAGGGGACCGUCCCCUCGGUAAUGGCGAAUGGGACCCA [C3U G11C], the self-cleavage worked out at 0.191.

For the variant GGUCGGCAUGGUCCCAGCCUCCUCGCUGGCGCCGGCUGGGCAACAUUCCGAGGGGACCGUACCCUCGGUAAUGGCGAAUGGGACCCA [C3U C61A], the self-cleavage was found to be 0.801.

Take GGUCGGCAUGGUCCCAGCCUCCUCGCUGGCGCCGGCUGGGCAACAUUCCGAGGGGACCGUCCCCUCUGUAAUGGCGAAUGGGACCCA [C3U G67U]: the self-cleavage came out at 0.752.

For GGUCGGCAUGGUCCCAGCCUCCUCGCUGGCGCCGGCUGGGCAACAUUCCGAGGGGACCGUCCCCUCAGUAAUGGCGAAUGGGACCCA [C3U G67A], the self-cleavage is 0.822.

GGUCGGCAUGGUCCCAGCCUCCUCGCUGGCGUCGGCUGGGCAACAUUCCGAGGGGACCGUCCCCUCGGUAAUGGCGAAUGGGACCCA [C3U C32U]: the self-cleavage was 0.338.

For GGUCGGCAUGGCCCCAGCCUCCUCGCUGGCGCCGGCUGGGCAACAUUCCGAGGGGACCGUCCCCUCGGUAAUGGCGAAUGGGACCCA [C3U U12C], the self-cleavage was 0.107.

Consider GGUCGGCAUGGUCCCAGCCUCCUCGCUGGCGCAGGCUGGGCAACAUUCCGAGGGGACCGUCCCCUCGGUAAUGGCGAAUGGGACCCA [C3U C33A], for which the self-cleavage came out at 0.123.

Turning to GGUCGGCAUGGUCCCAGCCUCCUCGCUGGCGCGGGCUGGGCAACAUUCCGAGGGGACCGUCCCCUCGGUAAUGGCGAAUGGGACCCA [C3U C33G], the self-cleavage turned out to be 0.0282.

For GGUCGGCAUGGUCCCAGCCUCCUCGCUGGCGCCGGCUGGGCAACAUUCCGAGGGGACCGUCCCCUCGGUAAUGGGGAAUGGGACCCA [C3U C75G], the self-cleavage came to 0.104.

Turning to GGUCGGCAUGGUCCCAGCCUCCUCGCUGGCGCCGGCUGGGCAACAUUCCGAGGGGACCGUCCCCUCGGUAAUGGUGAAUGGGACCCA [C3U C75U], the self-cleavage was found to be 0.197.

With GGUCGGCAUGGUCCCAGCCUCCUCGCUGGCGCCGGCUGGGCAACAUUCCGAGGGGACCGUCCCCUCGGUAAUGGAGAAUGGGACCCA [C3U C75A], the self-cleavage came to 0.101.

For GGUCGGCAUGGUCCCAGCCUCCUCGCUGGCGCCGGCUGGGCAACAUUCCGACGGGACCGUCCCCUCGGUAAUGGCGAAUGGGACCCA [C3U G52C], the self-cleavage is 0.546.

In the case of GGUCGGCAUGGUCCCAGCCUCCUCGCUGGCGCCGGCUGGGCAACAUUCCGAGCGGACCGUCCCCUCGGUAAUGGCGAAUGGGACCCA [C3U G53C], the self-cleavage was 0.688.

Turning to GGUCGGCAUGGUCCCAGCCUCCUCGCUGGCGCCGGCUGGGCAACAUUCCGAGUGGACCGUCCCCUCGGUAAUGGCGAAUGGGACCCA [C3U G53U], the self-cleavage is 0.779.

Take GGUCGGCAUGGUCCCAGCCUCCUCGCUCGCGCCGGCUGGGCAACAUUCCGAGGGGACCGUCCCCUCGGUAAUGGCGAAUGGGACCCA [C3U G28C]: the self-cleavage was 0.0449.

Turning to GGUCGGCAUGGUCCCAGCCUCCUCGCAGGCGCCGGCUGGGCAACAUUCCGAGGGGACCGUCCCCUCGGUAAUGGCGAAUGGGACCCA [C3U U27A], the self-cleavage stood at 0.701.

Turning to GGUCGGCAUGGUCCCAGCCUCCUCGCUGGCGCCGGCUGGGCAACAUUCCGAGGGGACCGUCCCCUCGGUAAUGGCGAAUGGGACUCA [C3U C85U], the self-cleavage came out at 0.626.

As for GGUCGGCAUGGUCCCAGCCUCCUCGCUGGCGCCGGCUGGGCAACAUUCCGAGGGGACCGUCCCCUCGGUAAUGGCGAAUGGGACACA [C3U C85A], the self-cleavage stood at 0.646.

On to GGUCGCCAUGGUCCCAGCCUCCUCGCUGGCGCCGGCUGGGCAACAUUCCGAGGGGACCGUCCCCUCGGUAAUGGCGAAUGGGACCCA [C3U G6C], for which the self-cleavage stood at 0.

For GGUCGGCAUGGUCCCAGCCUGCUCGCUGGCGCCGGCUGGGCAACAUUCCGAGGGGACCGUCCCCUCGGUAAUGGCGAAUGGGACCCA [C3U C21G], the self-cleavage stood at 0.0723.

Consider GGUCGGCAUGGUCCCAGCCUCCUCGCUGGCGCCGGCUGGGCAACAUUCCGAGGGGACCGUCCCCUCGGUAAUGGCGAAUGGUACCCA [C3U G82U], for which the self-cleavage was found to be 0.332.

Take GGUCGGCAUGGUCCCAGCCUCCUCGCUGGCGCCGGCUGGGCAACAUUUCGAGGGGACCGUCCCCUCGGUAAUGGCGAAUGGGACCCA [C3U C48U]: the self-cleavage turned out to be 0.804.

As for GGUCGGCAUGGUCCCAGCCUCCUCGCUGGCGCCGACUGGGCAACAUUCCGAGGGGACCGUCCCCUCGGUAAUGGCGAAUGGGACCCA [C3U G35A], the self-cleavage turned out to be 0.694.

As to GGUCGGCAUGGUCCCAGCCUCCUCGCUGGCGCCGUCUGGGCAACAUUCCGAGGGGACCGUCCCCUCGGUAAUGGCGAAUGGGACCCA [C3U G35U], the self-cleavage was found to be 0.649.

For GGUCGGCAUGGUCCCAGCCUCCUCGCUGGCGCCGGCUGGGCAACAUUCCGAGGGGAUCGUCCCCUCGGUAAUGGCGAAUGGGACCCA [C3U C57U], the self-cleavage stood at 0.794.

As to GGUCGGCAUGGUCCCAGCCUCCUCGCUGGCGCCGGCUGGGCAACAUUCCGAGGGGAACGUCCCCUCGGUAAUGGCGAAUGGGACCCA [C3U C57A], the self-cleavage was found to be 0.9.

Regarding GGUCGGCAUGGUCCCAGCCUCCUCGCUGGCGCCGGCUGCGCAACAUUCCGAGGGGACCGUCCCCUCGGUAAUGGCGAAUGGGACCCA [C3U G39C], the self-cleavage was 0.0804.

Consider GGUCGGCAUGGUCCCAGCCUCCUCGCUGGCGCCGGCUGAGCAACAUUCCGAGGGGACCGUCCCCUCGGUAAUGGCGAAUGGGACCCA [C3U G39A], for which the self-cleavage was 0.21.
